Where a chain is given by its changes, count along the chain named. Where two headings read alike, the source gives them in different places. Each block holds one binder with its values, some of them ahead of it.
Columns and labels:
[1] = target: T1, cynomolgus Gamma/Delta1A TCR-Fc fusion protein (cynomolgus monkey, biotinylated in vitro with recombinant BirA (AviTag)); assay: bead binding assay (TCR-Fc on streptavidin beads, IgG titrated, flow cytometry); apparent KD
T1 construct: First chain = delta, second = gamma; also called Cyno D1; cyno D1; not shown: Fc portion of mouse IgG, then AviTag and His6 tag at the C-terminus; Fc portion of mouse IgG

[2] = target: T2, Cyno D2 (biotinylated (AviTag)); assay: bead binding assay: biotinylated TCR-Fc on streptavidin beads, IgG titrated, flow cytometry
T2 construct: also called cynomolgus Gamma/Delta2; Cyno D2/G
T2 delta chain: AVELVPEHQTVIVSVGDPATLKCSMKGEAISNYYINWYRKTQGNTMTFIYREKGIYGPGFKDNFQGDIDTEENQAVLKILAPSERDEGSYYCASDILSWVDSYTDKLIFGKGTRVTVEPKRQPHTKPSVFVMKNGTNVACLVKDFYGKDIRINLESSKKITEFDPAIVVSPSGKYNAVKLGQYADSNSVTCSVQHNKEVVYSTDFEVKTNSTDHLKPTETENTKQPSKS
T2 gamma chain: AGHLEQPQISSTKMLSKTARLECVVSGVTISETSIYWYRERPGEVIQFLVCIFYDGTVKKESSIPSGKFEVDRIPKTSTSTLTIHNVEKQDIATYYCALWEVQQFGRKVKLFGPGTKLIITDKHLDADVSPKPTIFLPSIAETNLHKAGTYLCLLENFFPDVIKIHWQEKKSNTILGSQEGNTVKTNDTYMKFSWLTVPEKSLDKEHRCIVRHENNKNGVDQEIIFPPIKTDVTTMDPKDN

[3] = target: T1, cynomolgus Gamma/Delta1A TCR-Fc fusion …; assay: bead binding assay (TCR-Fc on streptavidin beads, IgG titrated, flow cytometry); apparent KD, s.d. of triplicates
[4] = target: T2, Cyno D2; assay: bead binding assay: biotinylated TCR-Fc on streptavidin beads, IgG titrated, flow cytometry
[5] = target: T3, cell surface-expressed δ1-γ4 TCR on J.RT3-T3.5 Jurkat cells; assay: flow cytometry titration on the D1/G4 TCR Cell Line (DP10 Hi), transduced J.RT3-T3.5 Jurkat cells
T3 construct: whole, on cells; also called Delta1 and gamma 4; delta1/gamma-4

[6] = target: T4, cell surface-expressed δ1γ3 TCR on J.RT3-T3.5 Jurkat cells; assay: flow cytometry titration on the D1/G3 TCR Cell Line (16-3 Hi), transduced J.RT3-T3.5 Jurkat cells
T4 construct: whole, on cells; also called Delta1 and gamma 3

[7] = target: T5, cell surface-expressed δ1-γ9 TCR on J.RT3-T3.5 Jurkat cells; assay: flow cytometry titration on the D1/G9 TCR Cell Line (JR2 Hi), transduced J.RT3-T3.5 Jurkat cells
T5 construct: whole, on cells; also called Delta1/Gamma9 TCR on the surface; delta1/gamma-9

[8] = target: T6, cell surface-expressed δ1-γ5 TCR on J.RT3-T3.5 Jurkat cells; assay: flow cytometry titration on the D1/G5 TCR Cell Line (AB Hi), transduced J.RT3-T3.5 Jurkat cells
T6 construct: whole, on cells; also called Delta1 and gamma 5

[9] = target: T7, cynomolgus monkey Delta1 Fc fusion protein (Delta1 clone not stated); assay: bio-layer interferometry (Octet), biotinylated receptor on streptavidin sensor tips, antibody in solution; KD Error 1.33e-012
T7 construct: also called monkey (cyno) delta-1 chain; monkey Delta1 receptors

[10] = target: T1, cynomolgus Gamma/Delta1A TCR-Fc fusion …; assay: bead binding assay by the table's title (paragraph 456 gives the same value for Octet BLI, FIG. 22B); apparent KD; apparent KD, IgG format, bead binding assay; measured once
[11] = target: T8, cell surface-expressed δ1γ2 TCR on J.RT3-T3.5 Jurkat cells; assay: flow cytometry titration on the D1/G2 TCR Cell Line (9-10 Hi), transduced J.RT3-T3.5 Jurkat cells
T8 construct: whole, on cells; Cells were stained with anti-human reagents; species of the transduced chains is not restated; also called Delta1 and gamma 2

[12] = target: T1, cynomolgus Gamma/Delta1A TCR-Fc fusion …; assay: bead binding assay: biotinylated TCR-Fc on streptavidin beads, IgG titrated, flow cytometry
[13] = target: T9, human Delta1 TCR (Fc fusion protein, Delta1 clone and gamma chain not stated); assay: bio-layer interferometry (Octet), biotinylated receptor on streptavidin sensor tips, antibody in solution; KD Error 1.14e-012
T9 construct: also called Human Delta1 Fc fusion protein; human delta-1 chain

[14] = target: T9, human Delta1 TCR (Fc fusion protein, …); assay: bead binding titration, flow cytometry (MFI against antibody concentration)
[15] = target: T10, cell surface-expressed δ1-γ8 TCR on J.RT3-T3.5 Jurkat cells; assay: flow cytometry titration on the D1/G8 TCR Cell Line (9-2 Hi), transduced J.RT3-T3.5 Jurkat cells
T10 construct: whole, on cells; also called Delta1 and gamma 8

[16] = target: T2, Cyno D2; assay: bead binding assay: biotinylated TCR-Fc on streptavidin beads, IgG titrated, flow cytometry

B3: Delta1-39 (antibody, V domains shown)
VH: EVQLVESGGGLVQPGGSLRLSCAASGFTFTANDIHWVRQAPGKGLEWVASIYSSSGYTYYADSVKGRFTISADTSKNTAYLQMNSLRAEDTAVYYCARDPGSYYWYYSGSAYEGYGLDYWGQGTLVTVSS
VL: DIQMTQSPSSLSASVGDRVTITCRASQSVSSAVAWYQQKPGKAPKLLIYAASSLQSGVPSRFSGSRSGTDFTLTISSLQPEDFATYYCQQQSKYPFLITFGQGTKVEIKR
notes: Tested in the human IgG format; also called anti-Delta1-39; Delta-39
EC50 (read off the curve) [5]: ~9 nM | EC50 (read off the curve) [6]: ~6 nM | EC50 (read off the curve) [7]: ~10 nM | EC50 (read off the curve) [8]: ~4 nM | Kd [9]: 0.285 nM | Kd [10]: 0.28 nM | EC50 (read off the curve) [11]: ~7 nM | EC50 (read off the curve) [12]: ~2 nM | Kd [13]: 0.231 nM | EC50 (read off the curve) [14]: ~1 nM | EC50 (read off the curve) [15]: ~6 nM

B4: Delta1-25 (antibody, V domains shown)
VH: B3 VH with F29V, T30S, A31S, N32S, D33S
VL: B3 VL with Q91I, S92G, K93R, Y94R, P95S, F96S
notes: Tested in the human IgG format
Kd [3]: 0.48 nM | binding result [16]: no binding (tested: 100 nM)

The remaining lines, values ahead:

Kd [1]: 1.16 nM | binding result [2]: no binding (tested: 100 nM)
B1: Delta1-24 (antibody, V domains shown)
VH: B3 VH with F29V, T30S, A31S, N32S, D33S
VL: B3 VL with Q91S, S92N, K93R, Y94S, P95Y, F96P, L97P, I98L
notes: as for B4

Kd [3]: 0.26 nM | binding result [4]: no binding (tested: 100 nM)
B2: Delta1-26 (antibody, V domains shown)
VH: B3 VH with F29V, T30S, A31S, N32S, D33S
VL: B3 VL with S92Q, K93R, P95S, F96Y
notes: as for B4
